In the assay the target is T1, Enhanced intracellular survival (Eis) protein from Mycobacterium tuberculosis, wild type (Mycobacterium tuberculosis, UniProt P9WFK7).
T1 sequence: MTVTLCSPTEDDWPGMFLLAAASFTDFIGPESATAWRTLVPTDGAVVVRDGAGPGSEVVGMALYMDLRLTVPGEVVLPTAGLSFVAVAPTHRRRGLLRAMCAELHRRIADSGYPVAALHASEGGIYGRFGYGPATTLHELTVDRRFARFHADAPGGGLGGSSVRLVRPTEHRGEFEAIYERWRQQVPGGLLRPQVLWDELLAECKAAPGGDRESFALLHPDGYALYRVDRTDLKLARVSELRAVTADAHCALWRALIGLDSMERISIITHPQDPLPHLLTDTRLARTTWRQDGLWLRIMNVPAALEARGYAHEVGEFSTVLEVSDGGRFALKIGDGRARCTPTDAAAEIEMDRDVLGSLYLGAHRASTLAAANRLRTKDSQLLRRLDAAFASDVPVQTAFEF
The experiment in a line: crystal structure.

B1: HupB_Mtb 9-mer peptide ATKAPAKKA (peptide)
peptide: ATKAPAKKA
Turning to B1, the binding result is listed as “binds”.

These data come from paper PMC5971062 (Biochemistry, 2018).
